Target: Drosophila melanogaster glutathione transferase epsilon 6 (Drosophila melanogaster)
Experiment: crystal structure; DmGSTE6 at 15-20 mg/ml with 10 mM GSH, 20% PEG3350, 0.2 M sodium thiocyanate, sitting drop vapour diffusion at 288 K; 1.72 Å; homodimer

With “Drosophila melanogaster glutathione transferase epsilon 6 (enzyme)” as the substance, how does the stoichiometry N read?
The stoichiometry N was 2.

From publication PMC4660579
